Reference: US12624096B2, “Anti-tau antibodies and methods of use thereof” (GTInvent Limited, priority 2020, dated 2026)
Entries after “also recorded” stand apart in the source; their conditions may differ.

B1: 3aD3: anti-tau clone, SEQ ID NO: 422 (protein)
scFv: QVQLQESGPSLVKPSQTLSLTCTVSGFSLTSNGVGWVRRAPGKVPEWVGDISSGGKVYGHPALKSRLSITRDTSKSQVSLSVSSVTSEDTAVYYCVRCRDGGVSYGYDSDYWGPGLLVTVSSEGKSSGASGESKVDDQAVVTQPSSVSKSLGQSVSITCSGSSSNVGYGDYVGWFQQVPGSAPKLLIYGVTERASGVPDRFSGSRSGNTATLTISSIQAEDEADYYCASYDDSSGGIFGSGTRLTVLG
modifications: 3aD3 amino acid sequence
B2: S1D12 mAb: S1D12 reformatted as mAb, heavy chain SEQ ID NO: 445, light chain SEQ ID NO: 446 (antibody)
heavy: QVQLQESGPSLVKPSQTLSLTCTVSGFSLNNNAVGWVRQAPGKVPESLVGCSSDGTCYYNSALKSRLDITRDTSKNQISLSLSSVTTDDAAVYYCTRGHYSIYGYDYLGTIDYWGPGLLVTVSSAKTTAPSVYPLAPVCGDTTGSSVTLGCLVKGYFPEPVTLTWNSGSLSSGVHTFPAVLQSDLYTLSSSVTVTSSTWPSQSITCNVAHPASSTKVDKKIEPRGPTIKPCPPCKCPAPNLLGGPSVFIFPPKIKDVLMISLSPIVTCVVVDVSEDDPDVQISWFVNNVEVHTAQTQTHREDYNSTLRVVSALPIQHQDWMSGKEFKCKVNNKDLPAPIERTISKPKGSVRAPQVYVLPPPEEEMTKKQVTLTCMVTDFMPEDIYVEWTNNGKTELNYKNTEPVLDSDGSYFMYSKLRVEKKNWVERNSYSCSVVHEGLHNHHTTKSFSRTPGK
light: QAVLTQPSSVSGSLGQRVSITCSGSSSNVGGGNSVGWYQHLPGSGLKTIIYDTNSRPSGVPDRFSGSRSGNTATLTINSLQAEDEGDYYCVTGDSTTHDDLVGSGTRLTVLGGQPKSSPSVTLFPPSSEELETNKATLVCTITDFYPGVVTVDWKVDGTPVTQGMETTQPSKQSNNKYMASSYLTLTARAWERHSSYSCQVTHEGHTVEKSLSRADCS
modifications: S1D12 mAB Heavy Chain; S1D12 mAB Light Chain

What was measured:
[1] = target: hT40, dGA, dGAE and truncated tau fragments/peptides (Homo sapiens, UniProt P10636); experiment: Binding ELISA for epitope mapping with truncated tau proteins and biotinylated 13mer peptides; conditions: scAbs used as negative controls in thioflavin T assay; data not shown
Chain of hT40, dGA, dGAE and truncated tau fragments/peptides (P10636 614-708): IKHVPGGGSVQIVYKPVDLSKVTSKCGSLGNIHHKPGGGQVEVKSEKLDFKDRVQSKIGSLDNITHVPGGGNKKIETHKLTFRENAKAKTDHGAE
Procedure: A series of binding ELISA was performed using various truncated versions of the tau protein and 13mer peptide libraries spanning the entire hT40 molecule for mapping the epitopes of anti-tau scAbs (Full list of protein antigens used is given in Table 14). In general, ELISA plates were coated with 1 μg/ml hT40 or dGA or dGAE or other truncated versions of the protein and in the case of biotinylated peptides, plates were coated with 5 μg/ml Streptavidin followed by 1 μg/ml biotinylated peptide. The plates were blocked with 2% MPBS and scAb samples added at desired starting concentrations and double diluted across the plate. Binding was detected using anti-Human C Kappa HRP conjugated secondary antibody and the resulting immunoreaction was developed and absorbance values measured as described above.
Similarly, dGA binding ‘NS’, ‘S’ and ‘M’ group scAbs were subjected to further antigen binding ELISA using shorter tau proteins and biotinylated 13mer peptides as shown below (FIGS. 10A-F) and (FIGS. 11A-R).
For anti-tau mAb SPR measurements (Biacore X100™) and epitope mapping, the same methodologies described above (see Example 16) were followed.

[2] = target: hT40 (Homo sapiens, UniProt P10636); experiment: Biacore X100 SPR, scAb captured via anti-HuCk, hT40 as analyte; type: binding; conditions: '3a' and '3b' scAbs, Table 25, hT40
Chain of hT40 (P10636 1-441 isoform P10636-8): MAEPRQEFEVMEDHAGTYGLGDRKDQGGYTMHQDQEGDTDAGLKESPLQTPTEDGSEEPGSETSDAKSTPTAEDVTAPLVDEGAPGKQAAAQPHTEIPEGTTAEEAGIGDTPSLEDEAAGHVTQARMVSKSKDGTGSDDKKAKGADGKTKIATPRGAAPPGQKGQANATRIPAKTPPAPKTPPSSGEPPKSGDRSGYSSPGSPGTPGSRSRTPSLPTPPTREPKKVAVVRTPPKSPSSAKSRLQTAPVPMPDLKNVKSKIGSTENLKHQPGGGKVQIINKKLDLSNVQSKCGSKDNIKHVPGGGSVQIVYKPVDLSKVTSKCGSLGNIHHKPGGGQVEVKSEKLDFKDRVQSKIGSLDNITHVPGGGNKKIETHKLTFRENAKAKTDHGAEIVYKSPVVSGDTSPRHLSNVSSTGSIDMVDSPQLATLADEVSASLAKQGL
Summary of the method: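 Captured scAb on anti-HuCk CM5 surface (flow cell 1 as reference) in HBS-EP+, capture set for theoretical RMax 100 RU; hT40 injected multi-cycle (0.15625–100 nM) or single-cycle (6.25–100 nM), 120 s association, 420 s dissociation, glycine pH 2.0 regeneration. Kinetics and affinity from 1:1 binding model fit.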

[3] = target: aggregated dGAE (Homo sapiens, UniProt P10636); experiment: Capture ELISA ranking of mAbs on dGAE aggregates; type: binding; conditions: 1 μg/ml capture mAb, 800 nM aggregated dGAE
Chain of aggregated dGAE (P10636 614-708): as the sequence (P10636 614-708) above
Procedure: The aggregation cascade of natively unfolded tau into insoluble filaments is a defining pathological feature of AD. Therefore, it is logical to target aggregated tau filaments for both therapeutic and diagnostic purposes. The following experiment was performed to assess the ability of our dGA mAb panel to bind aggregated dGAE using a capture ELISA method. Aggregates were prepared by incubating 100 μM dGAE and 10 mM dTT for 24 h at 37° C. with shaking at 700 RPM. The following day, dGAE aggregates were centrifuged at 17,000×g for 20 min and the supernatant was removed. The remaining pellet was washed with 10 mM phosphate buffer and centrifuged as above. Washing was repeated a further two times to remove any remaining dGAE monomer. The dGAE pellet was resuspended in 100 μl of 10 mM phosphate buffer. (Using a separate capture ELISA based quantification, we have worked out the efficiency of our dGAE aggregation as 80%)
For assessing the mAb panel for aggregate binding, designated rows of a maxisorp plate were coated with 1 μg/ml of each of the capture mAbs (S1D12, S1G2, CA4, NS2A1, CE2, E2E8 and CB7) and blocked as before. Following washing, 800 nM aggregated dGAE was added to the designated wells, double diluted across the plate and incubated for 1 h at RT. The plate was washed again and 1 μg/ml S1G2 scAb was added as detection antibody and incubated for 1 h at RT. To the row where S1G2 mAb was used for capture, […] s1D12 scAb was added as […] instead of S1G2. The assay was developed using HRP labelled HuCK as described previously.

[4] = Pharmacokinetic study of S1D12 mAb, single dose, plasma and brain (dGAE ligand binding ELISA); type: in vivo, mouse; conditions: single dose 30 mg/kg i.p., NMRI mice
Procedure: For the PK study, a total of 42 female NMRI mice (Swiss-type mouse, Naval Medical Research Institute) aged 6 months were allocated into six groups according to sample collection time (Table 30 for group size). Animals were injected intraperitoneally with S1D12 (30 mg/kg) and sacrificed 24-, 48-, 72-hours and 7-, 14- and 31-days after injection to collect blood and brain samples. A control group was also included in which animals were sacrificed to collect blood and brain, but no test item was administered.
Blood samples were centrifuged to obtain plasma at 2000×g for 5 min at 6° C., and samples were stored at −20° C. After blood collection, each mouse was perfused with heparinized saline for 2-3 minutes and the entire brain removed rapidly and snap frozen in liquid nitrogen and stored at −80° C.
Briefly, dGAE (1 μg/mL) was used to coat ELISA plates and blocked with 2% Marvel. […] Following washing, HRP-conjugated anti-mouse IgG as detector was added, and the assay developed using TMB solution as normal. The absorbance at 450 nm was read using a Clariostar plate reader (BMG Labtech) and MARS Clariostar software used to calculate S1D12 concentration from a standard curve.
Average values from each group (representing a time point) was plotted (FIG. 10) and the in vivo half-life, Cmax and Tmax calculated by performing a non-compartmental analysis of the plasma data using the PKSolver2.0 software (FIG. 51, Table 31). […] Here a higher coating concertation of dGAE at 10 μg/ml was used to compete off antibody binding to tau present in the brain.

[5] = target: dGAE aggregates (Homo sapiens, UniProt P10636); experiment: Sandwich ELISA on SDS/Triton X-100 treated dGAE aggregates; type: binding; conditions: S1D12 mAb capture, S1G2 scAb detection; SDS + Triton X-100 treated
Chain of dGAE aggregates (P10636 614-708): as above
Procedure: For aggregation, 1000 μL 100 μM dGAE+10 μL 10 mM DTT was added to a ‘LoBind’ microfuge tubes and agitated at 700 RPM/37° C., for 24 hours. Resulting sample centrifuged at 17,000×g/4° C., for 60 min and supernatant discarded to remove left over monomer. Pellet resuspended in half the original volume for future experiments and hereafter referred to as ‘aggregates’. 1 μl of aggregates was added to 1 ml of PBS and SDS was added to a final concentration of 1% (w/v). This was left to incubate on lab bench for 1 h with gentle agitation every 15 minutes. In order to neutralise the SDS effect on ELISA, Triton X-100 added to a final concentration of 3% (v/v) and mixed gently by pipetting to prevent any bubble formation. […] Similarly aggregates treated with only SDS or Triton X-100, untreated aggregates, dGAE monomers treated with only SDS or SDS+Titon X-100 were also added to designated wells as controls. All samples were then double diluted across the plate in final volumes of 100 μl. The final column was left with no protein to act as a blank. This was allowed to stand at room temperature for 1 hour followed by the addition of detection scAb-S1G2 at 10 μg/ml. Anti-HuCk HRP labelled secondary antibody was added as described previously and ELISA data generated was represented using the graph below. In addition, limits of detection (LoD) of various core binding antibody pairing for SDS Triton X-100 treated dGAE aggregates were calculated using the above describe ELISA method and substituting capture mAbs and detection scAbs as shown in Table 30.

[6] = target: T1, human tau (Homo sapiens, UniProt P10636, G652D/P618S); experiment: Western blot ratio of human to mouse tau in L66+/+ brain after 6-week S1D12 mAb therapy; type: in vivo; conditions: L66+/+ mice, 30 mg/kg i.p. weekly for 6 weeks vs vehicle, S1G2 detection
T1 construct: sample A with 5 nM full length human tau (hT40); from tissue; host or cells: brain homogenate of L66+/+ transgenic mice expressing the human tau transgene
T1 sequence (P10636 1-441 isoform P10636-8 P301S/G335D): as the sequence (P10636 1-441 isoform P10636-8) above, with P301S, G335D counted along it
Procedure: (§1) In a six-week repeat-dose study, a total of 12 WT, 12 Line 1 (L1) and 12 Line 66 homozygotes (L66+/*) female mice aged 2-months at the beginning of the study were used (Table 32 for group size). Mice in each genotype were injected intraperitoneally (i.p.) with either vehicle or S1D12 (30 mg/kg), once per week, for six consecutive weeks.
A hemisphere of each Line 66^+/+ mouse brain was suspended in RIPA buffer and homogenised. Samples were left on ice for 1 hour and subsequently centrifuged for 10 minutes at 10,000×g at 4° C. The supernatant was collected, and the total protein was quantified using a BCA Protein Assay Kit. Brain homogenate supernatant from each mouse was separated via sodium dodecyl sulphate polyacrylamide gel electrophoresis (SDS-PAGE) with MES running buffer. […] Following washing, the secondary antibody, sheep anti-mouse IgG-HRP, was added, and the membrane was washed five times with PBST and developed with Clarity Western ECL Substrate and read using a BioSpectrum Gel imaging System (UVP). Results were analysed using ImageJ-Fiji (NIH, Version 1.53) where densitometric analysis was performed and the ratio of human to mouse tau densities was calculated.

[7] = Six-week repeat-dose study, S1D12 mAb in plasma and brain; type: in vivo, mouse
Procedure: as §1
Mice treated with S1D12 were culled seven days after the last dosing whereas vehicle-treated animals were sacrificed the following day, i.e. 8 days post-treatment. Mice were anaesthetized using an overdose of sodium pentobarbital administered intraperitoneally for blood collection. Blood was transferred to plastic vials containing lithium heparin anticoagulant, centrifuged to obtain the plasma and the entire brain was removed as described previously. Plasma and brain samples (stored at −20° C., and −80° C., respectively) were subjected to further biochemical analysis.

[8] = tested on: plasma tau; experiment: Plasma tau (Simoa) after S1D12 immunotherapy; type: in vivo, mouse; set-up: plasma tau, core and proline region pairing (S1G2-BT2) / plasma tau, proline region pairing (BT2-HT7): unit not given here
Procedure: as §1
Three-step assays were performed and analysed as per previously described plasma screening methods in this document.

Molecule	cross reactivity to dGAE [1]	ka [2]	kd [2]	ability to capture aggregated dGAE [3]	Tmax in the brain [4]	Cmax ([4]; read-out: Cmax in the brain)	dGAE aggregates detectable in sandwich ELISA [5]	ratio of human tau to mouse tau in brain [6]	increase in S1D12 concentration in plasma following repeat dosing ([7]; WT mice, 30 mg/kg once per week for 6 weeks vs single dose, 7 days post dose)	plasma S1D12 antibody crossing the blood brain barrier ([7]; WT, L1 and L66+/+ mice, 30 mg/kg weekly for 6 weeks)	difference in plasma tau vs vehicle, S1G2-BT2 ([8]; L1 and wildtype mice)	plasma tau, core and proline region pairing (S1G2-BT2) ([8]; L66+/+ mice, S1D12 mAb 30 mg/kg weekly for 6 weeks)	increase in plasma tau vs vehicle, S1G2-BT2 ([8]; L66 mice)	plasma tau, proline region pairing (BT2-HT7) ([8]; L66 mice, S1D12 mAb 30 mg/kg weekly for 6 weeks)
B1	no cross reactivity to dGAE	544400 M⁻¹ s⁻¹	0.01038 s⁻¹											
B2				most efficient at capturing aggregated dGAE	48 h	6.2 nM	approximately 2 ng/ml	A decrease in the ratio of human tau to mouse tau; also recorded: A decrease in the levels of human tau was observed	> 3 fold	0.15-0.3%	not statistically significant	1438±275	more than a threefold increase	127±55
